# Test results reported in patent US7125658B2, “Small protein that interacts with a ribonucleotide reductase subunit and uses thereof” (The Trustees of Columbia University in the City of New York, priority 1998, dated 2006).
# T1: Recombinant yeast Rnr1 protein (large subunit of ribonucleotide reductase) (yeast (Saccharomyces cerevisiae), UniProt P21524 1-888)
# T1 sequence (looked up): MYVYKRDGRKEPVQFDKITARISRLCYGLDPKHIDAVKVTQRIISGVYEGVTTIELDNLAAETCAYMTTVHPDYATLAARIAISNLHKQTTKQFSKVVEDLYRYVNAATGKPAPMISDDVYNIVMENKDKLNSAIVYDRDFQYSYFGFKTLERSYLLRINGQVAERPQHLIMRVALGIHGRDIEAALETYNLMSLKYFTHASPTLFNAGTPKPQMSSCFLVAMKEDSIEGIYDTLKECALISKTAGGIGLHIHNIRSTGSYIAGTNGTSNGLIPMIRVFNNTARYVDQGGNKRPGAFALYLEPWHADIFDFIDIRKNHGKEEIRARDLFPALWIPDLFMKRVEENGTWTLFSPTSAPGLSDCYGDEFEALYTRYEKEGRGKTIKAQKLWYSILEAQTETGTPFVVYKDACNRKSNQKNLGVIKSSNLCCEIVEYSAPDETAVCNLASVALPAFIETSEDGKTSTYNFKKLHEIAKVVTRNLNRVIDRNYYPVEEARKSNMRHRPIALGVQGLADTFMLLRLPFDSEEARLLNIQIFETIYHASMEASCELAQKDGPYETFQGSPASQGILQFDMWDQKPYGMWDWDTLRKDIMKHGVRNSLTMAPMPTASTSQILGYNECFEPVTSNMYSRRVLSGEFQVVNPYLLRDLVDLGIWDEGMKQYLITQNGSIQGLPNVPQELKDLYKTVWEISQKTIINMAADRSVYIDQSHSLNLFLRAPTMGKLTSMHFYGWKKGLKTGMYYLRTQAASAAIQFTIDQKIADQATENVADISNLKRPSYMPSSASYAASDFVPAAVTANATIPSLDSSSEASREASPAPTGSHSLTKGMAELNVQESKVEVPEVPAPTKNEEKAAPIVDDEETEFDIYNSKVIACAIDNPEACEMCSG
# T2: yeast RNR (Saccharomyces cerevisiae, UniProt P21524)
# T2 construct: made in house; host or cells: E. coli BL21 (DE3), pET3a
# T2 sequence (P21524 1-888): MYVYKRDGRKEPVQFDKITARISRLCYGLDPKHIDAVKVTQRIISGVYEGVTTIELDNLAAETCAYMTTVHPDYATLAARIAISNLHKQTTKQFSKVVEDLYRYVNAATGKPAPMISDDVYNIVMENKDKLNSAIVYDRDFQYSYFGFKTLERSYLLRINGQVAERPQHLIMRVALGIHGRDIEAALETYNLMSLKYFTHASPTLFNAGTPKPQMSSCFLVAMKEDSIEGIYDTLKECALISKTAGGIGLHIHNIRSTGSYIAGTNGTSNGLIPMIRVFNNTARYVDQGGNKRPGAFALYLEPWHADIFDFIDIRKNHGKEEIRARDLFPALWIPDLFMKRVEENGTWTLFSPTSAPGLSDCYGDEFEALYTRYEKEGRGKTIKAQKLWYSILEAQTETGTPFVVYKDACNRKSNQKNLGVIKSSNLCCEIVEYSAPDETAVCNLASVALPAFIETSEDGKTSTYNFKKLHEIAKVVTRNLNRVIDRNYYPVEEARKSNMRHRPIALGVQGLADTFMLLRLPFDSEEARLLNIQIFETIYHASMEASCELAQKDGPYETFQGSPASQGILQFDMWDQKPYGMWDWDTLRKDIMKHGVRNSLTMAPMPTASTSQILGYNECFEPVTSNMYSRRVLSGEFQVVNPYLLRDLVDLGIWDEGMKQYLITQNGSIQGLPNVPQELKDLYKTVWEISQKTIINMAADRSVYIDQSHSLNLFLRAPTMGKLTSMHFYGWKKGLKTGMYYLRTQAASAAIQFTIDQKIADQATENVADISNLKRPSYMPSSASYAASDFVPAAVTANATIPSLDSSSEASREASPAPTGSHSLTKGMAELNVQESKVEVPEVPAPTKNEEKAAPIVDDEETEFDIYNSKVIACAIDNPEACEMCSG
# Experiments:
# [1] = molecular target: T1, Recombinant yeast Rnr1 protein (large …); assay: cell-based or functional assay
# [2] = molecular target: T1, Recombinant yeast Rnr1 protein (large …); assay: BIAcore SPR, calculated from rate constants; calculated from the rate constants, not the equilibrium fit
# Method: BIAcore biosensor analysis. The interaction between Sml1p and either yeast Rnr1p or mouse R1 protein was studied by biosensor analysis using the BIAcore method (Biacore AB). The Sml1 protein was prepared in 10 mM sodium acetate, pH 5.2, at a concentration of 0.44 mg/ml; it was then immobilized on the dextran layer of the sensor chip as described previously for the mouse R2 protein (17). The ligand proteins were equilibrated with running buffer (10 mM Hepes-KOH, pH 7.4, 200 mM potassium acetate, 1 mM EDTA, 5 mM magnesium acetate and 0.05% Surfactant P20 (BIAcore). The interactions were studied at a constant temperature of 22° C. and a constant flow of 5 μl/min. Kinetics for the interaction of Sml1p with yeast Rnr1p was determined by allowing the immobilized Sml1p to interact with increasing concentrations of Rnr1p (18). The resonance unit (RU) is proportional to the mass, and 1 RU corresponds to a surface concentration of 1 pg of protein/mm² of the 100 nm thick dextran layer (19).
# In control experiments, where the same series of Rnr1p solutions passed a sensor chip without immobilized Sml1p, a "bulk effect" gave a response of only about 60 RU. […] Calculating the equilibrium dissociation constant from these rate constants gave a K_0 of about 0.25 µM, which is close to the directly determined K_0.
# yeast RNR = molecular target: T2, yeast RNR; assay: in vitro yeast ribonucleotide reductase CDP reduction assay; format: biochemical
# Method: FIG. 9 Inhibition of yeast RNR by Sml1p. A series of tubes containing yeast RNR ([…]) were incubated at 30° C. for 30 min in a final volume of 50 μl: 25 nmol of [^3H]CDP (specific activity 37000 cpm/nmol), 2 μmol of Tris-HCl, pH 7.6, 0.125 μmol of ATP, 0.32 μmol of MgCl^2, 0.5 μmol of dithiothreitol, 5 μmol of KCl and 1 nmol of FeCl3. In addition, the tubes contained increasing amounts of Sml1p. After incubation, the samples were processed as described earlier to obtain the amount of dCDP formed (22).
# FIG. 10 Inhibition of yeast RNR by nonapeptides corresponding to the C terminal ends of Sml1p, Rnr2p or Rnr4p. […] 9 in the presence of increasing amounts of nonapeptide. Sml1 peptide, ã; Rnr2 peptide, o; Rnr4 peptide, x.
# Inhibition of yeast ribonucleotide reductase by the Sml1 protein. Recombinant yeast ribonucleotide reductase was assayed for activity using a CDP reduction assay, with ATP as a positive effector in the presence of increasing amounts of Sml1 protein (FIG. 9). A molar ratio of 1:1 between Rnr1p monomer (MW 100000) and Sml1p (MW 11800) gave about 50% inhibition.
# Inhibition of yeast ribonucleotide reductase by nonapeptides corresponding to the C-terminal ends of Sml1p, Rnr2p or Rnr4p. […] Since such peptides are known to inhibit RNR activity by binding to the R1 protein and preventing R1/R2 interaction, we wanted to study the influence of a C-terminal nonapeptide of Sml1p on yeast RNR activity.
Molecule,"efficiency in inhibiting yeast RNR activity relative to the Sml1p C terminal nonapeptide, molar basis [1] [times]",Kd [2] [nM],"efficiency in inhibiting yeast RNR activity relative to its C terminal nonapeptide, on a molar basis (yeast RNR)","type of inhibition versus Rnr2p/Rnr4p heterodimer (yeast RNR; Rnr2p/Rnr4p 1 to 32 μg, Rnr1p 2 μg, Sml1p 0, 0.2 and 2 μg)","inhibition of yeast RNR (yeast RNR; molar ratio of 1:1 between Rnr1p monomer and Sml1p, CDP reduction, ATP as positive effector)"
"Recombinant yeast Sml1 protein (other, Immobilized on the BIAcore chip in the biosensor experiments; also called YML058W product) MQNSQDYFYAQNRCQQQQAPSTLRTVTMAEFRRVPLPPMAEVPMLSTQNSMGSSASASASSLEMWEKDLEERLNSIDHDMNNNKFGSGELKSMFNQGKVEEMDF",~200,~250,,,
"Sml1p: 104 amino acid yeast protein encoded by YML058w (SML1) that binds Rnr1 and inhibits ribonucleotide reductase; recombinant, expressed in E. coli (protein) MQNSQDYFYAQNRCQQQQAPSTLRTVTMAEFRRVPLPPMAEVPMLSTQNSMGSSASASASSLEMWEKDLEERLNSIDHDMNNNKFGSGELKSMFNQGKVEEMDF",,,about 200 times,noncompetitive inhibition,about 50%
